Test results as given in US20210388110A1.

target: extracellular matrix (BD Matrigel); test: ECL on Matrigel-coated plate, relative to MRAH-G1d/MRAL-k0

Binder	ECM binding ratio (standard = 1)
TR01H040-E2702GsKsc/H0610-E2704sEpsc/L0201-k0 (bispecific antibody, human IgG4 S228P, kappa, N297A) heavy 1: QVQLVESGGGLVQPGRSLRLSCAASGFTFSNAWMHWVRQAPGKGLEWVAQIKDKSQNYATYYAESVKGRFTISRADSKNSIYLQMNSLKTEDTAVYYCRYVHYSASYGVDAWGQGTTVTVSSASTKGPSVFPLAPCSRSTSESTAALGCLVKDYFPEPVTVSWNSGALTSGVHTFPAVLQSSGLYSLSSVVTVPSSSLGTKTYTCNVDHKPSNTKVDKRVESKYGPPCPPCPAPEFRGGPKVFLFPPKPKDTLMISRTPEVTCVVVDVSQEDPEVQFNWYVDGVEVHNAKTKPREEQFASTYRVVSVLTVLHQDWLNGKEYKCKVSNKGLPSSIEKTISKAKGQPREPQVYTLPPSQKEMTKNQVSLTCLVKGFYPSDIAVEWESNGQPENNYKTTPPVLDSDGSFFLYSKLTVDKSRWQEGNVFSCSVMHEALHNRYTQKSLSLSP heavy 2: QVQLVQSGAEVKKPGASVKVSCKASGYTFTDYEMHWIRQPPGQGLEWIGAIDGKTPDTAYSQKFKGRVTLTADKSTSTAYMELSSLTSEDTAVYYCTRFYSYTYWGQGTLVTVSSASTKGPSVFPLAPCSRSTSESTAALGCLVKDYFPEPVTVSWNSGALTSGVHTFPAVLQSSGLYSLSSVVTVPSSSLGTQTYTCNVDHKPSNTKVDKRVESKYGPPCPPCPAPEFRGGPKVFLFPPKPKDTLMISRTPEVTCVVVDVSQEDPEVQFNWYVDGVEVHNAKTKPREEQFASTYRVVSVLTVLHQDWLNGKEYKCKVSNKGLPSSIEKTISKAKGQPREPQVYTLPPSQEEMTKNQVSLTCLVKGFYPSDIAVEWESNGQPENNYKTTPPVLDSDGSFFLYSKLTVDKSRWQEGNVFSCSVMHEALHNHYTQESLSLSP light: DIVMTQSPLSLPVTPGEPASISCRSSQPPVHSNRNTYLHWYQQKPGQAPRLLIYKVSNRFSGVPDRFSGSGSGTDFTLKISRVEAEDVGVYYCGQGTQVPYTFGQGTKLEIKRTVAAPSVFIFPPSDEQLKSGTASVVCLLNNFYPREAKVQWKVDNALQSGNSQESVTEQDSKDSTYSLSSTLTLSKADYEKHKVYACEVTHQGLSSPVTKSFNRGEC	0.8
TR01H040-E2702GsKsc/H0610-E2704sEpsc/L0203-k0 (bispecific antibody, human IgG4 S228P, kappa, N297A) heavy 1: QVQLVESGGGLVQPGRSLRLSCAASGFTFSNAWMHWVRQAPGKGLEWVAQIKDKSQNYATYYAESVKGRFTISRADSKNSIYLQMNSLKTEDTAVYYCRYVHYSASYGVDAWGQGTTVTVSSASTKGPSVFPLAPCSRSTSESTAALGCLVKDYFPEPVTVSWNSGALTSGVHTFPAVLQSSGLYSLSSVVTVPSSSLGTKTYTCNVDHKPSNTKVDKRVESKYGPPCPPCPAPEFRGGPKVFLFPPKPKDTLMISRTPEVTCVVVDVSQEDPEVQFNWYVDGVEVHNAKTKPREEQFASTYRVVSVLTVLHQDWLNGKEYKCKVSNKGLPSSIEKTISKAKGQPREPQVYTLPPSQKEMTKNQVSLTCLVKGFYPSDIAVEWESNGQPENNYKTTPPVLDSDGSFFLYSKLTVDKSRWQEGNVFSCSVMHEALHNRYTQKSLSLSP heavy 2: QVQLVQSGAEVKKPGASVKVSCKASGYTFTDYEMHWIRQPPGQGLEWIGAIDGKTPDTAYSQKFKGRVTLTADKSTSTAYMELSSLTSEDTAVYYCTRFYSYTYWGQGTLVTVSSASTKGPSVFPLAPCSRSTSESTAALGCLVKDYFPEPVTVSWNSGALTSGVHTFPAVLQSSGLYSLSSVVTVPSSSLGTQTYTCNVDHKPSNTKVDKRVESKYGPPCPPCPAPEFRGGPKVFLFPPKPKDTLMISRTPEVTCVVVDVSQEDPEVQFNWYVDGVEVHNAKTKPREEQFASTYRVVSVLTVLHQDWLNGKEYKCKVSNKGLPSSIEKTISKAKGQPREPQVYTLPPSQEEMTKNQVSLTCLVKGFYPSDIAVEWESNGQPENNYKTTPPVLDSDGSFFLYSKLTVDKSRWQEGNVFSCSVMHEALHNHYTQESLSLSP light: DIVMTQSPLSLPVTPGEPASISCRSSQSPVHSNRNTYIHWYQQKPGQAPRLLIYKVSNRFSGVPDRFSGSGSGTDFTLKISRVEAEDVGVYYCGQGTQVPYTFGQGTKLEIKRTVAAPSVFIFPPSDEQLKSGTASVVCLLNNFYPREAKVQWKVDNALQSGNSQESVTEQDSKDSTYSLSSTLTLSKADYEKHKVYACEVTHQGLSSPVTKSFNRGEC	0.8

Continued, values first:

ECM binding ratio (standard = 1)	Binder
0.8	TR01H040-E2702GsKsc/H0610-E2704sEpsc/L0000-k0 (bispecific antibody, human IgG4 S228P, kappa, N297A) heavy 1: QVQLVESGGGLVQPGRSLRLSCAASGFTFSNAWMHWVRQAPGKGLEWVAQIKDKSQNYATYYAESVKGRFTISRADSKNSIYLQMNSLKTEDTAVYYCRYVHYSASYGVDAWGQGTTVTVSSASTKGPSVFPLAPCSRSTSESTAALGCLVKDYFPEPVTVSWNSGALTSGVHTFPAVLQSSGLYSLSSVVTVPSSSLGTKTYTCNVDHKPSNTKVDKRVESKYGPPCPPCPAPEFRGGPKVFLFPPKPKDTLMISRTPEVTCVVVDVSQEDPEVQFNWYVDGVEVHNAKTKPREEQFASTYRVVSVLTVLHQDWLNGKEYKCKVSNKGLPSSIEKTISKAKGQPREPQVYTLPPSQKEMTKNQVSLTCLVKGFYPSDIAVEWESNGQPENNYKTTPPVLDSDGSFFLYSKLTVDKSRWQEGNVFSCSVMHEALHNRYTQKSLSLSP heavy 2: QVQLVQSGAEVKKPGASVKVSCKASGYTFTDYEMHWIRQPPGQGLEWIGAIDGKTPDTAYSQKFKGRVTLTADKSTSTAYMELSSLTSEDTAVYYCTRFYSYTYWGQGTLVTVSSASTKGPSVFPLAPCSRSTSESTAALGCLVKDYFPEPVTVSWNSGALTSGVHTFPAVLQSSGLYSLSSVVTVPSSSLGTQTYTCNVDHKPSNTKVDKRVESKYGPPCPPCPAPEFRGGPKVFLFPPKPKDTLMISRTPEVTCVVVDVSQEDPEVQFNWYVDGVEVHNAKTKPREEQFASTYRVVSVLTVLHQDWLNGKEYKCKVSNKGLPSSIEKTISKAKGQPREPQVYTLPPSQEEMTKNQVSLTCLVKGFYPSDIAVEWESNGQPENNYKTTPPVLDSDGSFFLYSKLTVDKSRWQEGNVFSCSVMHEALHNHYTQESLSLSP light: DIVMTQSPLSLPVTPGEPASISCRSSQSLVHSNRNTYLHWYQQKPGQAPRLLIYKVSNRFSGVPDRFSGSGSGTDFTLKISRVEAEDVGVYYCGQGTQVPYTFGQGTKLEIKRTVAAPSVFIFPPSDEQLKSGTASVVCLLNNFYPREAKVQWKVDNALQSGNSQESVTEQDSKDSTYSLSSTLTLSKADYEKHKVYACEVTHQGLSSPVTKSFNRGEC
0.7	TR01H109-E2702GsKsc/GCH065-E2704sEpsc/L0011-k0 (bispecific antibody, human IgG4 S228P, kappa, N297A) heavy 1: QVQLVESGGGLVQPGRSLRLSCAASGFTFSNAWMHWVRQAPGKGLEWVAQIKDKSQNYATYVAESVKGRFTISRDDSKNSLYLQMNSLKTEDTAVYYCRYVHYAAGYGVDAWGQGTTVTVSSASTKGPSVFPLAPCSRSTSESTAALGCLVKDYFPEPVTVSWNSGALTSGVHTFPAVLQSSGLYSLSSVVTVPSSSLGTKTYTCNVDHKPSNTKVDKRVESKYGPPCPPCPAPEFRGGPKVFLFPPKPKDTLMISRTPEVTCVVVDVSQEDPEVQFNWYVDGVEVHNAKTKPREEQFASTYRVVSVLTVLHQDWLNGKEYKCKVSNKGLPSSIEKTISKAKGQPREPQVYTLPPSQKEMTKNQVSLTCLVKGFYPSDIAVEWESNGQPENNYKTTPPVLDSDGSFFLYSKLTVDKSRWQEGNVFSCSVMHEALHNRYTQKSLSLSP heavy 2: QVQLVQSGAEVKKPGASVTVSCKASGYTFTDYEMHWIRQPPGEGLEWIGAIDGPTPDTAYSEKFKGRVTLTADKSTSTAYMELSSLTSEDTAVYYCTRFYSYTYWGQGTLVTVSSASTKGPSVFPLAPCSRSTSESTAALGCLVKDYFPEPVTVSWNSGALTSGVHTFPAVLQSSGLYSLSSVVTVPSSSLGTQTYTCNVDHKPSNTKVDKRVESKYGPPCPPCPAPEFRGGPKVFLFPPKPKDTLMISRTPEVTCVVVDVSQEDPEVQFNWYVDGVEVHNAKTKPREEQFASTYRVVSVLTVLHQDWLNGKEYKCKVSNKGLPSSIEKTISKAKGQPREPQVYTLPPSQEEMTKNQVSLTCLVKGFYPSDIAVEWESNGQPENNYKTTPPVLDSDGSFFLYSKLTVDKSRWQEGNVFSCSVMHEALHNHYTQESLSLSP light: DIVMTQSPLSLPVTPGEPASISCRSSQPLVHSNRNTYLHWYQQKPGQAPRLLIYKVSNRFSGVPDRFSGSGSGTDFTLKISRVEAEDVGVYYCGQGTQVPYTFGQGTKLEIKRTVAAPSVFIFPPSDEQLKSGTASVVCLLNNFYPREAKVQWKVDNALQSGNSQESVTEQDSKDSTYSLSSTLTLSKADYEKHKVYACEVTHQGLSSPVTKSFNRGEC
0.7	TR01H082-E2702GsKsc/GCH094-E2704sEpsc/L0011-k0 (bispecific antibody, human IgG4 S228P, kappa, N297A) heavy 1: QVQLVESGGGLVQPGRSLRLSCAASGFTFSNAWMHWVRQAPGKGLEWVAQIKDKSQNYATYYAESVKGRFTISRDDSKNSLYLQMNSLKTEDTAVYYCRYVHYAAGYGVDAWGQGTTVTVSSASTKGPSVFPLAPCSRSTSESTAALGCLVKDYFPEPVTVSWNSGALTSGVHTFPAVLQSSGLYSLSSVVTVPSSSLGTKTYTCNVDHKPSNTKVDKRVESKYGPPCPPCPAPEFRGGPKVFLFPPKPKDTLMISRTPEVTCVVVDVSQEDPEVQFNWYVDGVEVHNAKTKPREEQFASTYRVVSVLTVLHQDWLNGKEYKCKVSNKGLPSSIEKTISKAKGQPREPQVYTLPPSQKEMTKNQVSLTCLVKGFYPSDIAVEWESNGQPENNYKTTPPVLDSDGSFFLYSKLTVDKSRWQEGNVFSCSVMHEALHNRYTQKSLSLSP heavy 2: QVQLVQSGAEVKKPGASVTVSCKASGYTFTDYEMHWVRQAPGEGLEWMGAIDGETPDTAYSEKFKGRVTLTADKSTSTAYMELSSLTSEDTAVYYCTRFYSYTYWGQGTLVTVSSASTKGPSVFPLAPCSRSTSESTAALGCLVKDYFPEPVTVSWNSGALTSGVHTFPAVLQSSGLYSLSSVVTVPSSSLGTQTYTCNVDHKPSNTKVDKRVESKYGPPCPPCPAPEFRGGPKVFLFPPKPKDTLMISRTPEVTCVVVDVSQEDPEVQFNWYVDGVEVHNAKTKPREEQFASTYRVVSVLTVLHQDWLNGKEYKCKVSNKGLPSSIEKTISKAKGQPREPQVYTLPPSQEEMTKNQVSLTCLVKGFYPSDIAVEWESNGQPENNYKTTPPVLDSDGSFFLYSKLTVDKSRWQEGNVFSCSVMHEALHNHYTQESLSLSP light: DIVMTQSPLSLPVTPGEPASISCRSSQPLVHSNRNTYLHWYQQKPGQAPRLLIYKVSNRFSGVPDRFSGSGSGTDFTLKISRVEAEDVGVYYCGQGTQVPYTFGQGTKLEIKRTVAAPSVFIFPPSDEQLKSGTASVVCLLNNFYPREAKVQWKVDNALQSGNSQESVTEQDSKDSTYSLSSTLTLSKADYEKHKVYACEVTHQGLSSPVTKSFNRGEC
